Drawing on patent US8637016, this text covers AFFINITY for 1 substance.

In the assay the target is EphA3 antigen (Homo sapiens (Human)) (UniProt P29320). Briefly: ELISA on EphA3 antigen.
Sequence of UniProt P29320 (P29320 21-541 limits assumed, form in doubt): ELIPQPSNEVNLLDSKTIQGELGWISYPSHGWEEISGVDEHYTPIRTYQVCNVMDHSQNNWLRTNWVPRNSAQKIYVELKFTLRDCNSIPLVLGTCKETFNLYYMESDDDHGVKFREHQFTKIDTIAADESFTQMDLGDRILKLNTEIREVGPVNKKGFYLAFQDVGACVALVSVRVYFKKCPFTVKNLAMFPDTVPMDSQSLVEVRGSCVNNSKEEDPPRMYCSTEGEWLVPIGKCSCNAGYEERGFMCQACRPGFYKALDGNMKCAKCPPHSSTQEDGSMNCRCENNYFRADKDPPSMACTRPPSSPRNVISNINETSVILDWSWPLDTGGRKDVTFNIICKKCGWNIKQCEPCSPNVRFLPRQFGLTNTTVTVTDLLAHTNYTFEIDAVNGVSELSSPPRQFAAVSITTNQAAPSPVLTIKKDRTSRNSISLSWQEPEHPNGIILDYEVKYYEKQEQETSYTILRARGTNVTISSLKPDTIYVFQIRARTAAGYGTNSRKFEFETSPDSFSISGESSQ

Consider monoclonal antibody IIIA4, for which the AFFINITY came out at 2.5 nM.
